Assay results reported in patent US20130052130A1.

Columns and labels:
[1] = molecular target: BSM; assay: competition ELISA, BSM-coated plate; competitor is mCC49 at 0.033 ug/mL
[2] = molecular target: TAG-72; assay: competition assay, single aliquots; antigen and competitor not stated

Substance: CC49 Fab′-NEM
- I1/2 fold relative to F(ab′)2 (fold (× the I1/2 of F(ab′)2)) [1]: 40
- Relative Affinity Constant (Ka) (relative to Fab′-NEM defined as 1.0) [2]: 1

Substance: CC49 Fab′-dPEG12-Tris(dPEG12 acid)3
- Relative Affinity Constant (Ka) (relative to Fab′-NEM defined as 1.0) [2]: 0.3

Substance: CC49 Fab′-dPEG12-Tris(dPEG12-Tris(m-dPEG11)3)3
- Relative Affinity Constant (Ka) (relative to Fab′-NEM defined as 1.0) [2]: 0.4

Substance: CC49 Fab′-dPEG12-Tris(dPEG24 acid)3
- I1/2 fold relative to F(ab′)2 (fold (× the I1/2 of F(ab′)2)) [1]: 40
- Relative Affinity Constant (Ka) (relative to Fab′-NEM defined as 1.0) [2]: 1

Substance: CC49 Fab′-dPEG12-Tris(m-dPEG24)3
- Relative Affinity Constant (Ka) (relative to Fab′-NEM defined as 1.0) [2]: 0.3
